Results published in the supplement of paper PMC10065799, “High-throughput profiling of sequence recognition by tyrosine kinases and SH2 domains using bacterial peptide display” (eLife, 2023).

Key:
[1] = system: c-Abl (mouse); test: phosphorylation enrichment, bacterial display (enrichment ratio); higher = better substrate or ligand; peptides without Tyr show the background
[2] = system: AncSZ; test: as above
[3] = target: EPHB1 (UniProt P54762); test: as above
[4] = target: Fes (UniProt P07332); test: as above
Fes, sequence (P07332 whole entry, looked up): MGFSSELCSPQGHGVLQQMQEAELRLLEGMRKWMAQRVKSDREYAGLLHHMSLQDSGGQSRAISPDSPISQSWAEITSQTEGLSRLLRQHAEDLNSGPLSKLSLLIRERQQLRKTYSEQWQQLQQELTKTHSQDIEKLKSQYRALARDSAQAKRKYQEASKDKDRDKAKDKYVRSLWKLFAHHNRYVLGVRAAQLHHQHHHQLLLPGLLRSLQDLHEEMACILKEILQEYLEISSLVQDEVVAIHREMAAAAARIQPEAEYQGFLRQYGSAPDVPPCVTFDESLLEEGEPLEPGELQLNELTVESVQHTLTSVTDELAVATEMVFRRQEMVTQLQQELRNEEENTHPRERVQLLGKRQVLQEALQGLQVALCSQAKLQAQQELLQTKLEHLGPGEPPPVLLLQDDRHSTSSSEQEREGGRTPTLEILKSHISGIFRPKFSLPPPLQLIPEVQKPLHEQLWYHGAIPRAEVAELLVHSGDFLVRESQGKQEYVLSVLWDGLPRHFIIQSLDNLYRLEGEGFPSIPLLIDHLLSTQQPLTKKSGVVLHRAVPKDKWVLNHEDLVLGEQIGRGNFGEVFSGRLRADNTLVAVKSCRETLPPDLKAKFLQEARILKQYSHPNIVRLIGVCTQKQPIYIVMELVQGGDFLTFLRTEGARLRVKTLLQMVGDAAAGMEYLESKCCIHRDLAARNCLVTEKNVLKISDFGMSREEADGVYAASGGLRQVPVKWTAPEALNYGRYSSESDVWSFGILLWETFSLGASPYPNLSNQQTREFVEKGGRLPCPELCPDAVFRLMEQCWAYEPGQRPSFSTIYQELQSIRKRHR

[5] = target: EPHB2 (UniProt P29323); test: as above
EPHB2, sequence (P29323 whole entry, looked up): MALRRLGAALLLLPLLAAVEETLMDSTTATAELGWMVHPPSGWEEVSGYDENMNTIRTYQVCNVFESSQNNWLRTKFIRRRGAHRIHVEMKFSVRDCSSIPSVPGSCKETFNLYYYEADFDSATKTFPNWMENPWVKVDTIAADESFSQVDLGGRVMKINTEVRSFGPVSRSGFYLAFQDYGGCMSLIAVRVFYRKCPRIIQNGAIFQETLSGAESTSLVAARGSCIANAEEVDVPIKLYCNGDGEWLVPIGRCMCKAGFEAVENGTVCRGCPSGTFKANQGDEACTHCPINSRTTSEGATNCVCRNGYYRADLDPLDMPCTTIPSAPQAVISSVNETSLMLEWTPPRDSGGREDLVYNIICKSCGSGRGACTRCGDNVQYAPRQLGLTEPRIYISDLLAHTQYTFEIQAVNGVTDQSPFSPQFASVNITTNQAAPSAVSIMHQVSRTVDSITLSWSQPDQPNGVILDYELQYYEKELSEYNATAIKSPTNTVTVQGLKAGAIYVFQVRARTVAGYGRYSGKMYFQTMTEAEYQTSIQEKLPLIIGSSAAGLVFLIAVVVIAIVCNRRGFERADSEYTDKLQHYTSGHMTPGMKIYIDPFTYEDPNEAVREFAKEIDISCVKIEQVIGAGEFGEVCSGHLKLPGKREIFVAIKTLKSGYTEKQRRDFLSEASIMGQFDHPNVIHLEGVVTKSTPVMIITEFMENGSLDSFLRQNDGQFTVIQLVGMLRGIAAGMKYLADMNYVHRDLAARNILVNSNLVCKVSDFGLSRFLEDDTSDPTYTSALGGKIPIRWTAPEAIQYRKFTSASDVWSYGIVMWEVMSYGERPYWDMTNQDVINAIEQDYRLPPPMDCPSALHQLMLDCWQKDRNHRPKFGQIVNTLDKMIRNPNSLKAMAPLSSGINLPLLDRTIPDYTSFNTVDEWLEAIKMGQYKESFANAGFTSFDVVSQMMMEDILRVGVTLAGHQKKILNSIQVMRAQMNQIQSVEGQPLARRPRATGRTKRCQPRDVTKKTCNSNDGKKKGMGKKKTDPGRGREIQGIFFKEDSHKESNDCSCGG

[6] = system: c-Src; test: as above
[7] = target: Fyn (UniProt P06241); test: as above
Fyn, sequence (P06241 whole entry, looked up): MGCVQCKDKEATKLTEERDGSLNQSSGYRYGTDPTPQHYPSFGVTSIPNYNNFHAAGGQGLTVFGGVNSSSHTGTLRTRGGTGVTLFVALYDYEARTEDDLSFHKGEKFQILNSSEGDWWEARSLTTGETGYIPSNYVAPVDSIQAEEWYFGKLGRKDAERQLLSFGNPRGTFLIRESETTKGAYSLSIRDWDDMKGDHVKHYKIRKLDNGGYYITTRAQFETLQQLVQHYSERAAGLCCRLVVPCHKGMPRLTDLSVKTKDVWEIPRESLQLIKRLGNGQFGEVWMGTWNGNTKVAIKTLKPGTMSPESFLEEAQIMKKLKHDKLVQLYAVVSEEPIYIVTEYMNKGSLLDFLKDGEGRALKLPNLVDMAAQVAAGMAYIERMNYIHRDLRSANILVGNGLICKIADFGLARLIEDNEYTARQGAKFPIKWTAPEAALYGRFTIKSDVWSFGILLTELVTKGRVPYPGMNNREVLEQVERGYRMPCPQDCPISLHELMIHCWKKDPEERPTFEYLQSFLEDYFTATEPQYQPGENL

[8] = target: Hck (UniProt P08631); test: as above
Hck, sequence (P08631 whole entry, looked up): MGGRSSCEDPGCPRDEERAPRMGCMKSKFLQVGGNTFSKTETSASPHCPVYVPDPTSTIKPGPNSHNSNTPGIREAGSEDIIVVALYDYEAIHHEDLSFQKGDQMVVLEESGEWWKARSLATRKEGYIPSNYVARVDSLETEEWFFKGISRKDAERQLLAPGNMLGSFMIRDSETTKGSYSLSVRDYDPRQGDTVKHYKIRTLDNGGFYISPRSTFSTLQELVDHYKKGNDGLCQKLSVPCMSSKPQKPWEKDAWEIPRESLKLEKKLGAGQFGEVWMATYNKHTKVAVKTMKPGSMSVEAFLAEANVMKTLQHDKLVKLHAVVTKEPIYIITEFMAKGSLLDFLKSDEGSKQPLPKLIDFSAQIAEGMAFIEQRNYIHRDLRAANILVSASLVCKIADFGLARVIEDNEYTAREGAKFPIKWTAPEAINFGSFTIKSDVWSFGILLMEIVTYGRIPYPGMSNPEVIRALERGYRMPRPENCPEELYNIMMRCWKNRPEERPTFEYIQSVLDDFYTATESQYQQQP

[9] = target: Jak2 (UniProt O60674); test: as above
[10] = target: MERTK (UniProt Q12866); test: as above
MERTK, sequence (Q12866 whole entry, looked up): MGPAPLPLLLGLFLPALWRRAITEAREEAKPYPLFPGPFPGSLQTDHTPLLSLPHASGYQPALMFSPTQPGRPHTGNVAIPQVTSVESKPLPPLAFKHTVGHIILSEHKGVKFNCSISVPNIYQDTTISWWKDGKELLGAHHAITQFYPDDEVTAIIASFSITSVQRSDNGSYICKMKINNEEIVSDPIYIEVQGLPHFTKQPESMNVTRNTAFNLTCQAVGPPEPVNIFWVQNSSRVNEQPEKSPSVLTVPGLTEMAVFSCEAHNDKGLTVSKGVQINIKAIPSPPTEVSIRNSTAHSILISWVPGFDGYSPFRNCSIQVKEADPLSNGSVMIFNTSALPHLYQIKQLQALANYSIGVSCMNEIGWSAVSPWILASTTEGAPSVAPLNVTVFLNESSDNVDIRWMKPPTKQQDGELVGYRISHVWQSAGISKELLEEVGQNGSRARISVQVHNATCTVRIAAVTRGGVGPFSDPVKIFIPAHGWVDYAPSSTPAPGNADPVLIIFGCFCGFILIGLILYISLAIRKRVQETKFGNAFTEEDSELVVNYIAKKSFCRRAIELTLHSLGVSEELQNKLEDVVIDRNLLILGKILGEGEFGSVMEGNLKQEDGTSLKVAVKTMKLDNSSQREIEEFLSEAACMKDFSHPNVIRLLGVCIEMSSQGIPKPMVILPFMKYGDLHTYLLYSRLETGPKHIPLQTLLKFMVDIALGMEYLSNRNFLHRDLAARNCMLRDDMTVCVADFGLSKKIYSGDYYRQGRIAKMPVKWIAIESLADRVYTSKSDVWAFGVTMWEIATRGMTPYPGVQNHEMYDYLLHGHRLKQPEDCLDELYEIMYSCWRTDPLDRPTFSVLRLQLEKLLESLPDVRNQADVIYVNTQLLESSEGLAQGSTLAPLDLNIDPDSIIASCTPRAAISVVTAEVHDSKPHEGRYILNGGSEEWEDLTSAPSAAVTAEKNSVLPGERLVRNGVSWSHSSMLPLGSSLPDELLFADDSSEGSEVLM

[11] = system: Fer (mouse); test: as above
[12] = target: FGFR3 (UniProt P22607); test: as above
FGFR3, sequence (P22607 whole entry, looked up): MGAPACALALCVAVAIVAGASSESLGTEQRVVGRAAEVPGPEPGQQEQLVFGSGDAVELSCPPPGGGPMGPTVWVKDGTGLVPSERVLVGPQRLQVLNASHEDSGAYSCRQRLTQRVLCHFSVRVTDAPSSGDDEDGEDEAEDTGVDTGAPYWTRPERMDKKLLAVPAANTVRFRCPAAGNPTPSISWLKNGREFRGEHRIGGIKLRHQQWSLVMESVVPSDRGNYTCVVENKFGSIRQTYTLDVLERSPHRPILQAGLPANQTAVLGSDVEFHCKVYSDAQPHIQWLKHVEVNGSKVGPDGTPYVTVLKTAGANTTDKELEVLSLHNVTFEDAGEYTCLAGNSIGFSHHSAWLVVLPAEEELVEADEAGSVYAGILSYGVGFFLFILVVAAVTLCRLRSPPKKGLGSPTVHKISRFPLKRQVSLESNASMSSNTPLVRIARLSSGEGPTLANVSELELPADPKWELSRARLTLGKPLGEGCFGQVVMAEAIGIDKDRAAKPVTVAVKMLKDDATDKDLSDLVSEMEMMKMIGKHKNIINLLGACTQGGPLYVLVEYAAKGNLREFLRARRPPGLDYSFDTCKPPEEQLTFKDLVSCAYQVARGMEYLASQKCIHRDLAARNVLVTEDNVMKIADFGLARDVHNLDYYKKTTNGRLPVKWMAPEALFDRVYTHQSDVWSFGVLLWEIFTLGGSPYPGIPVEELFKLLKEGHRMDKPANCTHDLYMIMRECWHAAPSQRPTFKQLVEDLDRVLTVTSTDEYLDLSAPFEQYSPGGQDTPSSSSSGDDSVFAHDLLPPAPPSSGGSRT

[13] = target: FGFR1 (UniProt P11362); test: as above
[14] = target: c-Src SH2; test: SH2 binding enrichment of the phosphorylated peptide, bacterial display (enrichment ratio); higher = better substrate or ligand; peptides without Tyr show the background
[15] = target: SHP2-C SH2; test: as above
[16] = target: Grb2 SH2 (UniProt P62993); test: as above
Grb2 SH2, sequence (P62993 whole entry, looked up, the tested form may be a part): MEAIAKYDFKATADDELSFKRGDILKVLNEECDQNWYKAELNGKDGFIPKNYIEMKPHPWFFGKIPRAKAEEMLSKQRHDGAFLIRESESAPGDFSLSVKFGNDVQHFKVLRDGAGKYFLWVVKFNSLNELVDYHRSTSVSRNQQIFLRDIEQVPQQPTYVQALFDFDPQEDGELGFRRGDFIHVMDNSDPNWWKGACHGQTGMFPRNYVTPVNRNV
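For SH2 binding enrichment of the phosphorylated peptide, bacterial display in this document: peptide library displayed on the E. coli surface as eCPX fusions, selected cells deep-sequenced, score is each peptide's frequency after selection divided by its frequency in the input.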
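For phosphorylation enrichment, bacterial display in this document: 11-residue human phosphosite peptides and single-mutation variants displayed on the E. coli surface, counted by deep sequencing, each peptide's frequency after selection divided by its frequency in the unselected input library; frequency after pTyr selection over input frequency; kinase dosed for 20-30% of maximal phosphorylation in three min.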

Sequence | phosphorylation enrichment [1] | phosphorylation enrichment [2] | phosphorylation enrichment [3] | phosphorylation enrichment [4] | phosphorylation enrichment [5] | phosphorylation enrichment [6] | phosphorylation enrichment [7] | phosphorylation enrichment [8] | phosphorylation enrichment [9] | phosphorylation enrichment [10] | phosphorylation enrichment [11] | phosphorylation enrichment [12] | phosphorylation enrichment [13] | SH2 binding enrichment [14] | SH2 binding enrichment [15] | SH2 binding enrichment [16]
MCDSHYLESRF [CLK1_Y56_S61F] | 0.608 | 0.78 | 0.447 | 0.867 | 0.568 | 0.443 | 0.472 | 0.522 | 0.793 | 0.504 | 0.44 | 0.603 | 0.509 | 0.66 | 0.854 | 0.905
PLRAYYLIARV [HLCS_Y635_D634Y] | 0.865 | 1.17 | 0.543 | 1.12 | 0.726 | 0.362 | 0.571 | 0.415 | 1.71 | 0.636 | 0.732 | 1.31 | 1.2 | 1.62 | 1.69 | 1.67
KGLMPYGQPRP [SRRT_Y798_Q793K] | 0.455 | 0.444 | 0.365 | 0.727 | 0.371 | 0.378 | 0.36 | 0.325 | 0.426 | 0.527 | 0.363 | 0.366 | 0.388 | 0.558 | 0.986 | 0.923
ASKEPYYVHCI [MYO1D_Y585_R588H] | 0.627 | 0.953 | 1.96 | 0.974 | 1.21 | 0.576 | 0.482 | 0.554 | 0.755 | 0.636 | 0.506 | 1.36 | 1.89 | 0.685 | 0.889 | 0.924
AAYNRYDQERF [CDC73_Y293] | 0.512 | 0.681 | 0.401 | 0.752 | 0.463 | 0.468 | 0.457 | 0.447 | 0.646 | 0.518 | 0.433 | 0.538 | 0.521 | 0.497 | 0.585 | 0.737
REVKAYGAGLL [TH_Y419_G414R] | 0.55 | 0.559 | 0.487 | 0.649 | 0.405 | 0.363 | 0.532 | 0.419 | 0.53 | 0.411 | 0.853 | 0.817 | 0.411 | 0.618 | 0.776 | 0.786
VTAALYGRLFE [BTD_Y536_YF] | 0.626 | 0.748 | 0.535 | 0.734 | 0.656 | 4.97 | 6.32 | 5.74 | 0.633 | 1.08 | 0.436 | 0.527 | 0.439 | 0.627 | 1.16 | 1.16
SSRKEYFIGGG [GYPC_Y126] | 0.429 | 0.482 | 0.423 | 0.673 | 0.317 | 0.496 | 0.603 | 0.486 | 0.519 | 0.309 | 0.431 | 0.478 | 0.532 | 0.63 | 0.677 | 0.703
AEPHTYEEPGR [EPHA8_Y616] | 0.675 | 1.08 | 0.511 | 0.824 | 0.476 | 0.439 | 0.489 | 0.485 | 0.749 | 0.501 | 0.433 | 0.581 | 0.506 | 6.34 | 0.862 | 0.882
RNIQQYNSFVS [PRKAR1A_Y373] | 0.986 | 0.768 | 0.391 | 0.743 | 0.611 | 0.589 | 0.648 | 0.64 | 0.667 | 0.457 | 0.534 | 0.787 | 0.573 | 0.602 | 0.683 | 0.782
RWHEGYRQTPR [CD44_Y412_K417R] | 0.65 | 0.645 | 0.461 | 0.851 | 0.383 | 0.35 | 0.299 | 0.345 | 0.539 | 0.539 | 0.613 | 0.663 | 0.433 | 1.7 | 1.23 | 1.43
TKEPKYEGAGS [KIAA1210_Y1615] | 0.496 | 0.614 | 0.368 | 0.542 | 0.337 | 0.315 | 0.339 | 0.372 | 0.5 | 0.326 | 0.378 | 0.385 | 0.403 | 0.597 | 0.719 | 0.863
KPLMPCMRYSR [SMARCE1_Y73_Y73C] | 0.781 | 0.821 | 0.404 | 0.791 | 0.535 | 0.444 | 0.458 | 0.517 | 0.756 | 0.538 | 0.452 | 0.476 | 0.407 | 0.485 | 0.558 | 0.808
FKGIVYSVSSD [DCX_Y70_A71S] | 0.887 | 1.09 | 0.535 | 1.11 | 0.668 | 0.722 | 0.666 | 0.547 | 0.959 | 0.488 | 0.399 | 0.666 | 0.548 | 0.456 | 0.695 | 0.718
IEENGYNTFAS [FGF10_Y161_YF] | 0.846 | 0.952 | 0.478 | 1.07 | 0.526 | 0.628 | 0.451 | 0.477 | 0.961 | 0.506 | 0.498 | 0.614 | 0.602 | 1.45 | 0.66 | 0.749
RIFDFYSARKA [STOX1_Y858_YF] | 1.04 | 1.21 | 1.1 | 1.59 | 0.847 | 0.645 | 0.849 | 1.33 | 0.729 | 0.644 | 0.72 | 0.979 | 0.82 | 0.529 | 0.538 | 0.75
